System: Sla1 PPIs
Assay: DHFR-PCA of Sla1 SH3-swapped, -shuffled or -deleted baits (Fig. 2E, 4B, 4D, S5A)
Format: cell-based, Saccharomyces cerevisiae
From the text: The stuffing of YSC84 SH3 rendered the strain sterile and was therefore not used for this study as the assays require crosses. For genes containing two SH3s (BZZ1 and BEM1), a combination of this first stuffer with a second one ([…]) coding for a highly similar linker ([…]) was used, which allowed targeting each SH3 position independently. The two N-terminal domains of SLA1, which are separated by six nucleotides, were stuffed by a single stuffer. Cells containing pCAS were selected via the G418 resistance cassette from the plasmid on YPD plates (YPD + NAT 100 μg/ml (DHFR F[1,2] selection) + G418 200 µg/mL (Bioshop Canada)). Colonies were randomly selected and grown in YPD media without G418 to allow plasmid loss. The correct insertion of the stuffer was validated by PCR and Sanger sequencing. The SH3-swapped, -shuffled, and -mutated strains were constructed following a second CRISPR–Cas9 editing step with the same procedures. The stuffer sequences were targeted by specific gRNAs (one gRNA per stuffer) and replaced by PCR amplified specific SH3 (with 40 bp homology arms) or libraries of mutated SH3 domains for Deep Mutational Scanning (DMS) with 78 bp flanking homology regions. Validation of the SH3 domain insertions was done as we previously described except for DMS libraries (see below).
The overall DHFR-PCA pipeline is based on Tarassov et al.[43] and the procedures have also been published as a visualized protocol. The screens were performed with robotically manipulated pin tools (BM5-SC1, S&P Robotics Inc.). First, the preys were cherry-picked from 96-well plates to omnitrays in a 384 format on YPD + HPH solid media. Plates were then combined into the 1536 format on YPD + HPH. The array was constituted of 575 preys previously shown to interact physically with at least one SH3-containing protein as reported in BioGRID V3.4.16 along with 40 negative controls. The prey array comprised a border of control strains of two rows and two columns corresponding to the PPI between LSM8-DHFR F[1,2] and CDC39-DHFR F[3]. This double border was used to remove border effects. Preys are present in duplicate at a randomized position in the 1536 array (except for YAL041W which is present four times per array). Baits were crossed with two prey plates, resulting in four independent bait–prey tests for each PPI. Baits were grown in liquid YPD + NAT and then transferred on solid YPD + NAT omnitrays. They were then replicated on YPD + NAT omnitrays in 1536 array format. Mating of DHFR F[1,2] baits with DHFR F[3] preys was done on YPD followed by incubation at 30 °C for 48 h. Two diploid selection steps were performed by replicating the plates on YPD + NAT + HPH and incubating them for 48 h at 30 °C. Pictures were taken at the end of the second diploid selection for quality control. All images were acquired with a EOS Rebel T5i camera (Canon). Finally, the diploid cells were replicated on omnitrays containing solid PCA selection media and incubated for 4 days as a first selection step in a spImager custom robotic platform (S&P Robotics Inc.). Cells were replicated for a second PCA selection step and incubated in the same manner. The last time point of the second PCA selection step was used for the data analysis as in previous studies using this method.
A separate DHFR-PCA screen was performed for the Sla1 SH3 shuffling experiment, with the same analysis as previously described. Three plates had no detectable level of background, which correspond to the second plate of the three Sla1 SH3 WT re-insertion controls. They were attributed the average of the background of the three first plates of the same baits. The threshold was also determined based on the distribution of the PCA scores of all PPIs and corresponds to the top 2.75% of all colonies detected in this experiment. […] Almost all true PPIs are from four replicates (96.2%). […]

B1: SLA1 WT¦WT¦WT (protein, UniProt P32790 1-1244, looked up)
Actin cytoskeleton-regulatory …: MTVFLGIYRAVYAYEPQTPEELAIQEDDLLYLLQKSDIDDWWTVKKRVIGSDSEEPVGLVPSTYIEEAPVLKKVRAIYDYEQVQNADEELTFHENDVFDVFDDKDADWLLVKSTVSNEFGFIPGNYVEPENGSTSKQEQAPAAAEAPAATPAAAPASAAVLPTNFLPPPQHNDRARMMQSKEDQAPDEDEEGPPPAMPARPTATTETTDATAAAVRSRTRLSYSDNDNDDEEDDYYYNSNSNNVGNHEYNTEYHSWNVTEIEGRKKKKAKLSIGNNKINFIPQKGTPHEWSIDKLVSYDNEKKHMFLEFVDPYRSLELHTGNTTTCEEIMNIIGEYKGASRDPGLREVEMASKSKKRGIVQYDFMAESQDELTIKSGDKVYILDDKKSKDWWMCQLVDSGKSGLVPAQFIEPVRDKKHTESTASGIIKSIKKNFTKSPSRSRSRSRSKSNANASWKDDELQNDVVGSAAGKRSRKSSLSSHKKNSSATKDFPNPKKSRLWVDRSGTFKVDAEFIGCAKGKIHLHKANGVKIAVAADKLSNEDLAYVEKITGFSLEKFKANDGSSSRGTDSRDSERERRRRLKEQEEKERDRRLKERELYELKKARELLDEERSRLQEKELPPIKPPRPTSTTSVPNTTSVPPAESSNNNNSSNKYDWFEFFLNCGVDVSNCQRYTINFDREQLTEDMMPDINNSMLRTLGLREGDIVRVMKHLDKKFGRENIASIPTNATGNMFSQPDGSLNVATSPETSLPQQLLPQTTSPAQTAPSTSAETDDAWTVKPASKSESNLLSKKSEFTGSMQDLLDLQPLEPKKAAASTPEPNLKDLEPVKTGGTTVPAAPVSSAPVSSAPAPLDPFKTGGNNILPLSTGFVMMPMITGGDMLPMQRTGGFVVPQTTFGMQSQVTGGILPVQKTGNGLIPISNTGGAMMPQTTFGAAATVLPLQKTGGGLIPIATTGGAQFPQTSFNVQGQQQLPTGSILPVQKTANGLISANTGVSMPTVQRTGGTMIPQTSFGVSQQLTGGAMMTQPQNTGSAMMPQTSFNAVPQITGGAMMPQTSFNALPQVTGGAMMPLQRTGGALNTFNTGGAMIPQTSFSSQAQNTGGFRPQSQFGLTLQKTGGIAPLNQNQFTGGAMNTLSTGGVLQQQQPQTMNTFNTGGVMQELQMMTTFNTGGAMQQPQMMNTFNTDGIMQQPQMMNTFNTGGAMQQPQQQALQNQPTGFGFGNGPQQSRQANIFNATASNPFGF
Q: How did the “medrep = log2 median colony size normalized to plate background (PCA score)” value (prey YAL005C, 4 replicates) turn out when B1 was run?
A: 4.576

Q: What about the “medrep = log2 median colony size normalized to plate background (PCA score)” value (prey YAL005C, 4 replicates, listed as SLA1 WT¦WT¦WT*) of the same molecule?
A: 5.708

Q: And the “medrep = log2 median colony size normalized to plate background (PCA score)” value (prey YBL007C, 4 replicates)?
A: 3.858

Q: And the “medrep = log2 median colony size normalized to plate background (PCA score)” value (prey YBL007C, 4 replicates, listed as SLA1 WT¦WT¦WT*)?
A: 4.787

Q: What about the “medrep = log2 median colony size normalized to plate background (PCA score)” value (prey YBR234C, 4 replicates) of the same molecule?
A: 4.193

Q: And the “medrep = log2 median colony size normalized to plate background (PCA score)” value (prey YBR234C, 4 replicates, listed as SLA1 WT¦WT¦WT*)?
A: 5.208

Q: And the “medrep = log2 median colony size normalized to plate background (PCA score)” value (prey YCR009C, 2 replicates)?
A: 2.175

Q: What about the “medrep = log2 median colony size normalized to plate background (PCA score)” value (prey YCR030C, 4 replicates) of the same molecule?
A: 2.158

Q: And the “medrep = log2 median colony size normalized to plate background (PCA score)” value (prey YCR088W, 4 replicates)?
A: 3.971

Q: What about the “medrep = log2 median colony size normalized to plate background (PCA score)” value (prey YCR088W, 4 replicates, listed as SLA1 WT¦WT¦WT*) of the same molecule?
A: 4.931

Q: What about the “medrep = log2 median colony size normalized to plate background (PCA score)” value (prey YDL229W, 4 replicates) of the same molecule?
A: 4.158

Q: What about the “medrep = log2 median colony size normalized to plate background (PCA score)” value (prey YDL229W, 4 replicates, listed as SLA1 WT¦WT¦WT*) of the same molecule?
A: 5.378

Q: And the “medrep = log2 median colony size normalized to plate background (PCA score)” value (prey YDR129C, 4 replicates)?
A: 3.756

Q: And the “medrep = log2 median colony size normalized to plate background (PCA score)” value (prey YDR129C, 4 replicates, listed as SLA1 WT¦WT¦WT*)?
A: 4.737

Q: And the “medrep = log2 median colony size normalized to plate background (PCA score)” value (prey YFL010C, 2 replicates)?
A: 3.147

Q: And the “medrep = log2 median colony size normalized to plate background (PCA score)” value (prey YFR024C-A, 4 replicates)?
A: 3.943

Q: And the “medrep = log2 median colony size normalized to plate background (PCA score)” value (prey YFR024C-A, 4 replicates, listed as SLA1 WT¦WT¦WT*)?
A: 4.815

Q: What about the “medrep = log2 median colony size normalized to plate background (PCA score)” value (prey YGL206C, 4 replicates) of the same molecule?
A: 3.77

Q: What about the “medrep = log2 median colony size normalized to plate background (PCA score)” value (prey YGL206C, 4 replicates, listed as SLA1 WT¦WT¦WT*) of the same molecule?
A: 4.526

Q: What about the “medrep = log2 median colony size normalized to plate background (PCA score)” value (prey YGR229C, 4 replicates) of the same molecule?
A: 2.045

Q: And the “medrep = log2 median colony size normalized to plate background (PCA score)” value (prey YHR016C, 4 replicates)?
A: 3.008

Q: And the “medrep = log2 median colony size normalized to plate background (PCA score)” value (prey YHR016C, 4 replicates, listed as SLA1 WT¦WT¦WT*)?
A: 3.247

Q: What about the “medrep = log2 median colony size normalized to plate background (PCA score)” value (prey YHR064C, 4 replicates) of the same molecule?
A: 3.59

Q: What about the “medrep = log2 median colony size normalized to plate background (PCA score)” value (prey YHR064C, 4 replicates, listed as SLA1 WT¦WT¦WT*) of the same molecule?
A: 4.449

Q: What about the “medrep = log2 median colony size normalized to plate background (PCA score)” value (prey YIL062C, 4 replicates) of the same molecule?
A: 3.558

Q: And the “medrep = log2 median colony size normalized to plate background (PCA score)” value (prey YIL062C, 4 replicates, listed as SLA1 WT¦WT¦WT*)?
A: 4.388

Q: What about the “medrep = log2 median colony size normalized to plate background (PCA score)” value (prey YIR006C, 4 replicates) of the same molecule?
A: 3.754

Q: What about the “medrep = log2 median colony size normalized to plate background (PCA score)” value (prey YIR006C, 4 replicates, listed as SLA1 WT¦WT¦WT*) of the same molecule?
A: 4.634

Q: And the “medrep = log2 median colony size normalized to plate background (PCA score)” value (prey YKL013C, 4 replicates)?
A: 3.269

Q: And the “medrep = log2 median colony size normalized to plate background (PCA score)” value (prey YKL013C, 4 replicates, listed as SLA1 WT¦WT¦WT*)?
A: 3.776

Q: And the “medrep = log2 median colony size normalized to plate background (PCA score)” value (prey YKL054C, 4 replicates)?
A: 2.47

Q: And the “medrep = log2 median colony size normalized to plate background (PCA score)” value (prey YKL054C, 4 replicates, listed as SLA1 WT¦WT¦WT*)?
A: 3.124

Q: What about the “medrep = log2 median colony size normalized to plate background (PCA score)” value (prey YKL117W, 4 replicates) of the same molecule?
A: 3.846

Q: And the “medrep = log2 median colony size normalized to plate background (PCA score)” value (prey YKL117W, 4 replicates, listed as SLA1 WT¦WT¦WT*)?
A: 4.725

Q: And the “medrep = log2 median colony size normalized to plate background (PCA score)” value (prey YKL129C, 4 replicates)?
A: 2.117

Q: What about the “medrep = log2 median colony size normalized to plate background (PCA score)” value (prey YLR337C, 4 replicates) of the same molecule?
A: 3.738

Q: And the “medrep = log2 median colony size normalized to plate background (PCA score)” value (prey YLR337C, 4 replicates, listed as SLA1 WT¦WT¦WT*)?
A: 4.734

Q: And the “medrep = log2 median colony size normalized to plate background (PCA score)” value (prey YLR370C, 4 replicates)?
A: 3.494

Q: What about the “medrep = log2 median colony size normalized to plate background (PCA score)” value (prey YLR370C, 4 replicates, listed as SLA1 WT¦WT¦WT*) of the same molecule?
A: 4.461

Q: What about the “medrep = log2 median colony size normalized to plate background (PCA score)” value (prey YMR109W, 4 replicates) of the same molecule?
A: 2.836

Q: What about the “medrep = log2 median colony size normalized to plate background (PCA score)” value (prey YMR109W, 4 replicates, listed as SLA1 WT¦WT¦WT*) of the same molecule?
A: 3.116

Q: What about the “medrep = log2 median colony size normalized to plate background (PCA score)” value (prey YNL084C, 4 replicates) of the same molecule?
A: 3.76

Q: What about the “medrep = log2 median colony size normalized to plate background (PCA score)” value (prey YNL084C, 4 replicates, listed as SLA1 WT¦WT¦WT*) of the same molecule?
A: 4.641

Q: And the “medrep = log2 median colony size normalized to plate background (PCA score)” value (prey YNL138W, 4 replicates)?
A: 2.038

Q: And the “medrep = log2 median colony size normalized to plate background (PCA score)” value (prey YNL243W, 4 replicates)?
A: 3.418

Q: And the “medrep = log2 median colony size normalized to plate background (PCA score)” value (prey YNL243W, 4 replicates, listed as SLA1 WT¦WT¦WT*)?
A: 4.392

Q: And the “medrep = log2 median colony size normalized to plate background (PCA score)” value (prey YOR181W, 4 replicates)?
A: 3.933

Q: And the “medrep = log2 median colony size normalized to plate background (PCA score)” value (prey YOR181W, 4 replicates, listed as SLA1 WT¦WT¦WT*)?
A: 4.903

— PMC7954794, “Protein context shapes the specificity of SH3 domain-mediated interactions in vivo” (Nature Communications, 2021)
